Columns and labels:
ErbB2-ECD = ErbB2-ECD (Homo sapiens, UniProt P04626); assay: SPR, ErbB2-ECD amine-coupled on chip, analyte injected, 25 °C, 1:1 Langmuir fit; affibody dimeric
[1] = target: T1, HER2 (human epidermal growth factor receptor 2) on cells (human, UniProt P04626 23-1255); assay: flow cytometry (Cy5), MDA-MB-231/HER2 cells, 2 h
T1 construct: whole, on cells; also called ERBB2; HER2 receptor

[2] = target: T1, HER2 (human epidermal growth factor …); assay: flow cytometry (Cy5), MDA-MB-231/HER2 cells, 3.33 nM, 37 °C, 4 h
[3] = target: T1, HER2 (human epidermal growth factor …); assay: flow cytometry (Cy5), MDA-MB-231 parental cells (HER2 lo, control), 0.25 h
[4] = target: T1, HER2 (human epidermal growth factor …); assay: flow cytometry (Cy5), MDA-MB-231/HER2 cells, 1 h
[5] = target: T1, HER2 (human epidermal growth factor …); assay: flow cytometry (Cy5), MDA-MB-231/HER2 cells, 3.33 nM, 37 °C, 24 h
[6] = target: T1, HER2 (human epidermal growth factor …); assay: flow cytometry (Cy5), MDA-MB-231 parental cells (HER2 lo, control), 24 h
[7] = target: T1, HER2 (human epidermal growth factor …); assay: flow cytometry (Cy5), MDA-MB-231/HER2 cells, 3.33 nM, 37 °C, 0.5 h
Procedure: (§1) After incubation, non-binding/non-associating particles were removed from adherent cells by gently washing with DPBS three times (300 μL/well). Cells were removed from plates by treatment with TrypLE™ Express Enzyme (1×), no phenol red (150 μL/well) for 5-10 min at room temperature. The plates were then placed on ice. Cellular binding and association of sample were then determined through flow cytometry by the acquisition of the signal from Cy5.
(§2) To measure internalisation kinetics, nanobody-dendrimer was incubated with cells for 24, 4, 1, 0.5, and 0.1 hours at 37° C. before unbound nanobody-dendrimer was removed by washing and analysed by flow cytometry.

[8] = target: T1, HER2 (human epidermal growth factor …); assay: flow cytometry (Cy5), MDA-MB-231 parental cells (HER2 lo, control), 3.33 nM, 37 °C, 0.5 h
Procedure: as §1, §2

[9] = target: T1, HER2 (human epidermal growth factor …); assay: flow cytometry (Cy5), MDA-MB-231/HER2 cells, 0.25 h
[10] = target: T1, HER2 (human epidermal growth factor …); assay: flow cytometry (Cy5), MDA-MB-231/HER2 cells, 4 h
[11] = target: T1, HER2 (human epidermal growth factor …); assay: flow cytometry (Cy5), HER2-positive MDA-MB-453 cells, triplicate wells
[12] = target: T1, HER2 (human epidermal growth factor …); assay: flow cytometry (Cy5), MDA-MB-231 parental cells (HER2 lo, control), 1 h
[13] = target: T1, HER2 (human epidermal growth factor …); assay: flow cytometry (Cy5), MDA-MB-231 parental cells (HER2 lo, control), 3.33 nM, 37 °C, 0.25 h
Procedure: as §1, §2

[14] = target: T1, HER2 (human epidermal growth factor …); assay: flow cytometry (Cy5), MDA-MB-231 parental cells (HER2 lo, control), 3.33 nM, 37 °C, 24 h
Procedure: as §1, §2

[15] = target: T1, HER2 (human epidermal growth factor …); assay: flow cytometry (Cy5), MDA-MB-231 parental cells (HER2 lo, control), 2 h
[16] = target: T1, HER2 (human epidermal growth factor …); assay: flow cytometry (Cy5), MDA-MB-231/HER2 cells, 3.33 nM, 37 °C, 1 h
[17] = target: T1, HER2 (human epidermal growth factor …); assay: flow cytometry (Cy5), MDA-MB-231 parental cells (HER2 lo, control), 0.5 h
[18] = target: T1, HER2 (human epidermal growth factor …); assay: flow cytometry (Cy5), MDA-MB-231 parental cells (HER2 lo, control), 3.33 nM, 37 °C, 1 h
[19] = target: T1, HER2 (human epidermal growth factor …); assay: flow cytometry (Cy5), MDA-MB-231 parental cells (HER2 lo, control), 4 h
[20] = target: T1, HER2 (human epidermal growth factor …); assay: flow cytometry (Cy5), MDA-MB-231/HER2 cells, 24 h
[21] = target: T1, HER2 (human epidermal growth factor …); assay: flow cytometry (Cy5), MDA-MB-231 parental cells (HER2 lo, control), 3.33 nM, 37 °C, 4 h
Procedure: as §1, §2

[22] = target: T1, HER2 (human epidermal growth factor …); assay: flow cytometry (Cy5), MDA-MB-231/HER2 cells, 3.33 nM, 37 °C, 0.25 h
Procedure: as §1, §2

[23] = target: T1, HER2 (human epidermal growth factor …); assay: flow cytometry (Cy5), MDA-MB-231/HER2 cells, 0.5 h
[24] = target: T1, HER2 (human epidermal growth factor …); assay: flow cytometry (Cy5), MDA-MB-231 parental cells (HER2 lo, control), 3.33 nM, 37 °C, 2 h
Procedure: as §1, §2

[25] = target: T1, HER2 (human epidermal growth factor …); assay: flow cytometry (Cy5), MDA-MB-231/HER2 cells, 3.33 nM, 37 °C, 2 h
[26] = target: T1, HER2 (human epidermal growth factor …); assay: flow cytometry (Cy5), MDA-MB-231/HER2 cells, 0.5 h; remark: listed apart in the source
[27] = target: T1, HER2 (human epidermal growth factor …); assay: flow cytometry (Cy5), MDA-MB-231 parental cells (HER2 lo, control), 0.5 h; remark: listed apart in the source

Molecule	MFI [1]	percent of cellular association [2]	MFI [3]	MFI [4]	percent of cellular association [5]	MFI [6]	percent of cellular association [7]	percent of cellular association [8]	MFI [9]	MFI [10]	MFI [11]	MFI [12]	percent of cellular association [13]	percent of cellular association [14]	MFI [15]	percent of cellular association [16]	MFI [17]	percent of cellular association [18]	percent of cellular association [26]	percent of cellular association [27]	also measured
Affibody protein (HER2, Affibody AB) (designed binder)	–	–	–	–	–	–	–	–	–	–	–	–	–	–	–	–	–	–	–	–	Kd (ErbB2-ECD): 0.266 nM; koff (ErbB2-ECD): 0.00051 s⁻¹; kon (ErbB2-ECD): 1.9e+06 M⁻¹ s⁻¹
Nanobody*-N3/DBCO-NHCO-PEG12TCO/((MeTzPh)PEG4CO-NHPEG24CO-[N(PN)2][Lys]2[Lys]4[Lys]8[Lys]16[((α-NHCy5)1(α-NHAc)15)(ε-NH-COPEG1100)16, Compound 125 (VHH, C-terminal # (unnatural amino acid, p-azido-phenylalanine) clicked to DBCO-NHCO-PEG12-TCO, joined to the tetrazine at the core of the G4 lysine dendrimer Compound 53 (1 Cy5, 15 acetyl, 16 PEG1100), also called G4 2D3 conjugated dendrimer) VHH: EVQLVESGGSLVQPGGSLRLSCAASGFTFDDYAMSWVRQVPGKGLEWVSSINWSGTHTDYADSVKGRFTISRNNANNTLYLQMNSLKSEDTAVYYCAKNWRDAGTTWFEKSGSAGQGTQVTVSS	342	36%	227	241	56.3%	219	0.67%	0.53%	215	611	158	230	0.87%	0.87%	236	0.77%	223	1%	–	–	MFI [19]: 246; MFI [20]: 1010; percent of cellular association [21]: 0.83%; percent of cellular association [22]: 0.57%; MFI [23]: 224; percent of cellular association [24]: 0.77%; percent of cellular association [25]: 6.13%
BHA[Lys]2[Lys]4[Lys]8[Lys]16[Lys]32[((α-NH-COPEG24NH-COPEG4(PhMeTz)/TCO-PEG3NH-COPEG24NH-Glu-DBCO/N3-Nanobody)1(α-Lys(α-NHCy5)(ε-NHDFO))1(α-NH2)30(ε-NH-COPEG100 … (VHH, # (unnatural amino acid, p-azido-phenylalanine, after ...QVTVSS) clicked to the DBCO of linker Compound 51, whose TCO is joined to the tetrazine on the surface of the G5 lysine dendrimer Compound 29 (Cy5, DFO, 32 PEG1000), also called BHA-G5-PEG1000 + NB) VHH: EVQLVESGGSLVQPGGSLRLSCAASGFTFDDYAMSWVRQVPGKGLEWVSSINWSGTHTDYADSVKGRFTISRNNANNTLYLQMNSLKSEDTAVYYCAKNWRDAGTTWFEKSGSAGQGTQVTVSS	–	–	–	–	–	–	–	–	–	–	–	–	–	–	–	–	–	–	165%	17.5%	–
BHALys[Lys]2[Lys]4[Lys]8[((α-NH-COPEG24NH-COPEG4(PhMeTz)/TCO-PEG3NH-COPEG24NH-Glu-DBCO/N3-Nanobody)1(α-Lys(α-NHCy5)(ε-NHDFO))1(α-NH2)6)(ε-NH-COPEG1000)8], G3, … (VHH, # (unnatural amino acid, p-azido-phenylalanine, after ...QVTVSS) clicked to the DBCO of linker Compound 51, whose TCO is joined to the tetrazine on the surface of the G3 lysine dendrimer Compound 27 (Cy5, DFO, 8 PEG1000), also called BHA-G3-PEG1000 + NB) VHH: EVQLVESGGSLVQPGGSLRLSCAASGFTFDDYAMSWVRQVPGKGLEWVSSINWSGTHTDYADSVKGRFTISRNNANNTLYLQMNSLKSEDTAVYYCAKNWRDAGTTWFEKSGSAGQGTQVTVSS	–	–	–	–	–	–	–	–	–	–	–	–	–	–	–	–	–	–	218%	25.1%	–
BHA[Lys]2[Lys]4[Lys]8[Lys]16[((α-NH-COPEG24NH-COPEG4(PhMeTz)/TCO-PEG3NH-COPEG24NH-Glu-DBCO/N3-Nanobody)1(α-Lys(α-NHCy5)(ε-NHDFO))1(α-NH2)14(ε-NH-COPEG1000)16], … (VHH, # (unnatural amino acid, p-azido-phenylalanine, after ...QVTVSS) clicked to the DBCO of linker Compound 51, whose TCO is joined to the tetrazine on the surface of the G4 lysine dendrimer Compound 28 (Cy5, DFO, 16 PEG1000), One nanobody on each dendrimer; also called single 2D3-dendrimer conjugate; BHA-G4-PEG1000 + NB) VHH: EVQLVESGGSLVQPGGSLRLSCAASGFTFDDYAMSWVRQVPGKGLEWVSSINWSGTHTDYADSVKGRFTISRNNANNTLYLQMNSLKSEDTAVYYCAKNWRDAGTTWFEKSGSAGQGTQVTVSS	–	–	–	–	–	–	–	–	–	–	–	–	–	–	–	–	–	–	157%	20%	–

Now from value to molecule, other results behind:

MFI [1]	percent of cellular association [2]	MFI [3]	MFI [4]	percent of cellular association [5]	MFI [6]	percent of cellular association [7]	percent of cellular association [8]	MFI [9]	MFI [10]	MFI [11]	MFI [12]	percent of cellular association [13]	percent of cellular association [14]	MFI [15]	percent of cellular association [16]	MFI [17]	percent of cellular association [18]	percent of cellular association [26]	percent of cellular association [27]	Molecule	also measured
445	50.6%	246	294	60.7%	224	0.6%	0.87%	235	800	50.8	237	1.07%	0.83%	241	2.57%	228	0.8%	–	–	Nanobody*-N3/DBCO-NHCO-PEG12TCO/(MeTzPh)PEG4CO-NHPEG24CO-[N(PN)2][Lys]4[Lys]8[((α-NHCy5)1(α-NHAc)7)(ε-NH-COPEG1100)8], Compound 124 (VHH, C-terminal # (unnatural amino acid, p-azido-phenylalanine) clicked to DBCO-NHCO-PEG12-TCO, joined to the tetrazine at the core of the G3 lysine dendrimer Compound 52 (1 Cy5, 7 acetyl, 8 PEG1100), also called G3 2D3 conjugated dendrimer) VHH: EVQLVESGGSLVQPGGSLRLSCAASGFTFDDYAMSWVRQVPGKGLEWVSSINWSGTHTDYADSVKGRFTISRNNANNTLYLQMNSLKSEDTAVYYCAKNWRDAGTTWFEKSGSAGQGTQVTVSS	MFI [19]: 250; MFI [20]: 1110; percent of cellular association [21]: 0.93%; percent of cellular association [22]: 0.67%; MFI [23]: 226; percent of cellular association [24]: 1.13%; percent of cellular association [25]: 17.4%
–	–	–	–	–	–	–	–	–	–	–	–	–	–	–	–	–	–	190%	30.8%	BHALys[Lys]2[Lys]4[((α-NH-COPEG24NH-COPEG4(PhMeTz)/TCO-PEG3NH-COPEG24NH-Glu-DBCO/N3-Nanobody)1(α-Lys(α-NHCy5)(ε-NHDFO))1(α-NH2)2)(ε-NH-COPEG1000)4], G2, … (VHH, # (unnatural amino acid, p-azido-phenylalanine, after ...QVTVSS) clicked to the DBCO of linker Compound 51, whose TCO is joined to the tetrazine on the surface of the G2 lysine dendrimer Compound 25 (Cy5, DFO, 4 PEG1000), also called BHA-G2-PEG1000 + NB) VHH: EVQLVESGGSLVQPGGSLRLSCAASGFTFDDYAMSWVRQVPGKGLEWVSSINWSGTHTDYADSVKGRFTISRNNANNTLYLQMNSLKSEDTAVYYCAKNWRDAGTTWFEKSGSAGQGTQVTVSS	–
436	59.8%	195	295	73.5%	223	0.7%	1.03%	207	1040	177	254	0.53%	0.8%	233	2.8%	245	1.37%	–	–	Nanobody*-N3/DBCO-NHCO-PEG12TCO/(MeTzPh)PEG4CO-NHPEG24CO-[N(PN)2][Lys]2[Lys]4[Lys]8[Lys]16[Lys]32[((α-NHCy5)1(α-NHAc)31)(ε-NH-COPEG1100)32], Compound 126 (VHH, C-terminal # (unnatural amino acid, p-azido-phenylalanine) clicked to DBCO-NHCO-PEG12-TCO, joined to the tetrazine at the core of the G5 lysine dendrimer Compound 54 (1 Cy5, 31 acetyl, 32 PEG1100), G5 2D3 conjugated dendrimer) VHH: EVQLVESGGSLVQPGGSLRLSCAASGFTFDDYAMSWVRQVPGKGLEWVSSINWSGTHTDYADSVKGRFTISRNNANNTLYLQMNSLKSEDTAVYYCAKNWRDAGTTWFEKSGSAGQGTQVTVSS	MFI [19]: 247; MFI [20]: 2750; percent of cellular association [21]: 0.67%; percent of cellular association [22]: 0.43%; MFI [23]: 237; percent of cellular association [24]: 0.73%; percent of cellular association [25]: 18%

Source: patent publication US20240293588A1, “THERAPEUTIC CONJUGATES” (Starpharma Pty Ltd, priority 2020, published 2024)
